Test results as given in patent publication US20100112546A1.

How the values were obtained:
[1] = target: prostate specific antigen (PSA) (UniProt P07288); assay: silicon nanowire FET (p-type), antibody on the wire; f-PSA 0.085 pg/ml
[2] = target: PSA-alpha-1-antichymotrypsin (PSA-ACT) complex (UniProt P07288); assay: silicon nanowire FET (p-type); mixture of f-PSA 8.5, PSA-ACT 320 and free Ab1 1 x 10^7 pg/ml (f-PSA blocked by Ab1)
[3] = target: prostate specific antigen (PSA) (UniProt P07288); assay: silicon nanowire FET (p-type), antibody on the wire; f-PSA 1700 pg/ml
[4] = target: PSA-alpha-1-antichymotrypsin (PSA-ACT) complex (UniProt P07288); assay: silicon nanowire FET (p-type), antibody on the wire; PSA-ACT 0.32 pg/ml
[5] = target: PSA-alpha-1-antichymotrypsin (PSA-ACT) complex (UniProt P07288); assay: silicon nanowire FET (p-type), antibody on the wire; PSA-ACT 320 pg/ml
[6] = target: PSA-alpha-1-antichymotrypsin (PSA-ACT) complex (UniProt P07288); assay: silicon nanowire FET (p-type), antibody on the wire; PSA-ACT 3200 pg/ml
[7] = target: PSA-alpha-1-antichymotrypsin (PSA-ACT) complex (UniProt P07288); assay: silicon nanowire FET (p-type); mixture of f-PSA 0.85, PSA-ACT 3200 and free Ab1 1 x 10^7 pg/ml (f-PSA blocked by Ab1)
[8] = target: PSA-alpha-1-antichymotrypsin (PSA-ACT) complex (UniProt P07288); assay: silicon nanowire FET (p-type); mixture of f-PSA 850, PSA-ACT 0.32 and free Ab1 1 x 10^7 pg/ml (f-PSA blocked by Ab1)
[9] = target: prostate specific antigen (PSA) (UniProt P07288); assay: silicon nanowire FET (p-type), antibody on the wire; f-PSA 0.85 pg/ml
[10] = target: PSA-alpha-1-antichymotrypsin (PSA-ACT) complex (UniProt P07288); assay: silicon nanowire FET (p-type); mixture of f-PSA 850, PSA-ACT 3200 and free Ab1 1 x 10^7 pg/ml (f-PSA blocked by Ab1)
[11] = target: prostate specific antigen (PSA) (UniProt P07288); assay: silicon nanowire FET (p-type), antibody on the wire; f-PSA 8.5 pg/ml
[12] = target: prostate specific antigen (PSA) (UniProt P07288); assay: silicon nanowire FET (p-type), antibody on the wire; f-PSA 850 pg/ml
[13] = target: PSA-alpha-1-antichymotrypsin (PSA-ACT) complex (UniProt P07288); assay: silicon nanowire FET (p-type), antibody on the wire; PSA-ACT 3.2 pg/ml

monoclonal antibody anti-ACT-PSA (AbII, clone PSA1, abcam Inc.)
Conductance Change, nS [1]: 10 nS
Conductance Change, nS [2]: 118 nS
Conductance Change, nS [3]: 154 nS
Conductance Change, nS [4]: 19 nS
Conductance Change, nS [5]: 124 nS
Conductance Change, nS [6]: 143 nS
Conductance Change, nS [7]: 138 nS
Conductance Change, nS [8]: 15 nS
Conductance Change, nS [9]: 50 nS
Conductance Change, nS [10]: 140 nS
Conductance Change, nS [11]: 81 nS
Conductance Change, nS [12]: 132 nS
Conductance Change, nS [13]: 67 nS
